Test results taken from patent publication US20240084027A1 (BEIJING MABWORKS, published 2024).
Where two headings read alike, the source gives them in different places. Each block holds one binder with its values, some of them ahead of it.

How the values were obtained:
human CD40-his protein = target: T1, human CD40-his protein (human, UniProt P25942 21-193); assay: SPR (BIAcore 8K), human CD40-his coupled to CM5 chip, antibody injected
T1 construct: Bought protein; also called human CD40 protein; CD40 molecules; not shown: his tag
From the text: (§1) Using BIAcore™ 8K instrument (GE Life Sciences, US), the binding affinity of the bi- or multi-specific antibodies to human CD40 and PD-L1 was quantitatively measured. Briefly, 100-200 response units (RU) of human CD40-his protein (Cat #:10774-1108H, Sino Biological, CN) or human PD-L1-his protein (Cat #:10084-H08H, Sino Biological, CN) were coupled to CM5 biosensor chips (Cat #:BR-1005-30, GE Life Sciences. USA). The un-reacted groups were then blocked with 1 M ethanolamine. Serially diluted antibodies at concentrations ranging from 0.3 μM to 10 μM were injected into the SPR running buffer (HBS-EP buffer, pH7.4, Cat #:BR-1006-69, GE Life Sciences, USA) at 30 μL/min. The binding affinity was calculated with the RUs of blank controls subtracted, and the association rate (kₐ) and dissociation rate (kd) were determined using the one-to-one Langmuir binding model (BIA Evaluation Software, GE Life Sciences, USA). The equilibrium dissociation constant KD was calculated as the kd/kₐ ratio.

[1] = target: T2, human PD-L1 on HEK293A/human PD-L1 cells (human, UniProt Q9NZQ7 19-290); assay: FACS on HEK293A/human PD-L1 cells
Description: (§2) The bispecific antibodies as prepared above were tested for their binding capability to cell surface human, monkey and mouse CD40 proteins by FACS, using the HEK293A cells prepared in Example 1 that stably expressed human, monkey or mouse CD40. Briefly, a 96-well plate was seeded with 10⁵ HEK293A cells in 50 μl PBS, and then added with 100 μl serially diluted anti-CD40 antibody 714VH2VL2 and the bispecific antibodies of the disclosure (starting concentration at 40 μg/ml). After incubation at 4° C. for 1 h, the plate was washed by PBST for 3 times. The plate was added with 1:500 diluted APC-goat anti-mouse IgG (Cat #:405308, BioLegen, USA), incubated at 4° for 1 h, washed with PBS for 3 times, and subjected to fluorescence measurement in a FACS machine (BD).
(§3) Following the protocols in Example 4 and Example 5, the bi- or multi-specific antibodies of the disclosure were tested for their binding capability to human PD-L1 and human CD40 proteins by FACS using the HEK293A cells prepared in Example 1 that stably expressed human PD-L1 or human CD40.

[2] = target: T2, human PD-L1 on HEK293A/human PD-L1 cells; assay: FACS blocking assay on HEK293A/human PD-L1 cells; blocked ligand PD-1-Fc
Description: The bispecific antibodies were tested for their blocking activity on PD-1-PD-L1 binding by FACS using the HEK293A cells stably expressing human PD-L1 molecules as prepared in Example 1. Briefly, a 96-well plate was seeded with 10⁵ HEK293A/human PD-L1 cells in 100 μl cell culture medium, and then added with 50 μl serially diluted anti-PD-L1 antibody 56E5VH5VL4 or MBS307-3 molecules. After incubation at 4° C. for 1 h. the plate was washed with PBST for 3 times, added with 100 μl 200 μg/ml PD-1-Fc fusion proteins (Cat #:10377-10211, Sino Biological, CN), incubated at 4° C. for 1 h, washed with PBST for 3 times, and added with 1:500 diluted PE-goat anti-human IgG (Cat #:PAI-86078, Thermofisher, USA). After incubation at 4° C. for 1 h, the plate was washed with PBST for 3 times and measured for fluorescence using a FACS machine (BD).
Following the protocol of Example 7, the bi- or multi-specific antibodies were tested for their capability to block PD-1-PD-L1 binding by FACS, using the HEK293A cells prepared in Example 1 that stably expressed human PD-L1 molecules.

[3] = target: T3, human CD40 on HEK293A/human CD40 cells (human, UniProt P25942 21-277); assay: cell-based or functional assay
human PD-L1-his protein = target: T4, human PD-L1-his protein (human, UniProt Q9NZQ7 19-238); assay: SPR (BIAcore 8K), human PD-L1-his coupled to CM5 chip, antibody injected
T4 construct: extracellular domain; also called human PD-L1 (ECD)-his; human PD-L1 protein; not shown: his tag
From the text: as §1

[4] = target: T3, human CD40 on HEK293A/human CD40 cells; assay: FACS on HEK293A/human CD40 cells
Description: as §2, §3

[5] = target: T3, human CD40 on HEK293A/human CD40 cells; assay: cell-based or functional assay; remark: listed apart in the source
[6] = target: T3, human CD40 on HEK293A/human CD40 cells; assay: FACS on HEK293A/human CD40 cells; remark: listed apart in the source
Description: as §2, §3

[7] = target: T3, human CD40 on HEK293A/human CD40 cells; assay: FACS on HEK293A/human CD40 cells; remark: listed apart in the source
Description: as §2, §3

[8] = target: T3, human CD40 on HEK293A/human CD40 cells; assay: cell-based or functional assay; remark: listed apart in the source
[9] = target: T5, monkey CD40 on HEK293A/monkey CD40 cells (monkey, UniProt P25942 21-277 (human entry)); assay: FACS on HEK293A/monkey CD40 cells
T5 chain: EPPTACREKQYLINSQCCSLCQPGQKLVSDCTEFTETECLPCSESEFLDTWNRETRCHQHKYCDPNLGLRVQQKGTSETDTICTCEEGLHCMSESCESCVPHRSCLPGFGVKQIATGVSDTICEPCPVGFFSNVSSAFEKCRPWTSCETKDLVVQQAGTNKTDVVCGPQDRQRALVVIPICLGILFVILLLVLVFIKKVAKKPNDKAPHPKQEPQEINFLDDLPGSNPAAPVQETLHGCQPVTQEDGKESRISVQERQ
Description: as §2

[10] = target: T3, human CD40 on HEK293A/human CD40 cells; assay: FACS on HEK293A/human CD40 cells; remark: listed apart in the source
Description: as §2

T4 sequence (Q9NZQ7 19-238): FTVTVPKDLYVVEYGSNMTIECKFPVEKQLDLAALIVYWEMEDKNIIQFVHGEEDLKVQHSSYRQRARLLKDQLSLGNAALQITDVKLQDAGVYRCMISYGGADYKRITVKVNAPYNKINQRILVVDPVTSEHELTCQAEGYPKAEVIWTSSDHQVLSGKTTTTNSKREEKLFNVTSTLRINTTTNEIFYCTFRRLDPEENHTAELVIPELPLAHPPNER
T2 sequence (Q9NZQ7 19-290 limits assumed): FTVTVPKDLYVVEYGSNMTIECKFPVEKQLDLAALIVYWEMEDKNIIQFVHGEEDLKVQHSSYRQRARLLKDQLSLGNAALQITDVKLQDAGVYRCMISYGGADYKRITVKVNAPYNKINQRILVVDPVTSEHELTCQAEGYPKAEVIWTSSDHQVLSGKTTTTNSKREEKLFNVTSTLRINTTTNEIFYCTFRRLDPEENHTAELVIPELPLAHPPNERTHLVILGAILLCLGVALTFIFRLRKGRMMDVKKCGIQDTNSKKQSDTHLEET

Kd (human CD40-his protein): 3.11 nM | EC50 (read off the curve) [1]: ~0.6 µg/mL | IC50 (read off the curve) [2]: ~1 µg/mL | EC50 (read off the curve); HEK-Blue/CD40 reporter, OD630, plate coated with human PD-L1-his [3]: ~0.02 µg/mL | Kd (human PD-L1-his protein): 42 nM | EC50 (read off the curve) [4]: ~0.07 µg/mL
B1: MBS307-6 (bispecific antibody, human IgG1, kappa, L234A L235A)
heavy 1: QVQLQESGPGLVKPSDTLSLTCAVSGYSITTNYYWNWIRQPPGKGLEWMGYIKYDGSNNYNPSLKNRITISVDTSKNQFSLKLSSVTAVDTAVYYCARLDYWGQGTLVTVSSASTKGPSVFPLAPSSKSTSGGTAALGCLVKDYFPEPVTVSWNSGALTSGVHTFPAVLQSSGLYSLSSVVTVPSSSLGTQTYICNVNHKPSNTKVDKKVEPKSCDKTHTCPPCPAPEAAGGPSVFLFPPKPKDTLMISRTPEVTCVVVDVSHEDPEVKFNWYVDGVEVHNAKTKPREEQYNSTYRVVSVLTVLHQDWLNGKEYKCKVSNKALPAPIEKTISKAKGQPREPQVYTLPPSREEMTKNQVSLWCLVKGFYPSDIAVEWESNGQPENNYKTTPPVLDSDGSFFLYSKLTVDKSRWQQGNVFSCSVMHEALHNHYTQKSLSLSPGK
heavy 2: QVQLQESGPGLVKPSDTLSLTCAVSGYSITTNYYWNWIRQPPGKGLEWMGYIKYDGSNNYNPSLKNRITISVDTSKNQFSLKLSSVTAVDTAVYYCARLDYWGQGTLVTVSSASTKGPSVFPLAPSSKSTSGGTAALGCLVKDYFPEPVTVSWNSGALTSGVHTFPAVLQSSGLYSLSSVVTVPSSSLGTQTYICNVNHKPSNTKVDKKVEPKSCDKTHTCPPCPAPEAAGGPSVFLFPPKPKDTLMISRTPEVTCVVVDVSHEDPEVKFNWYVDGVEVHNAKTKPREEQYNSTYRVVSVLTVLHQDWLNGKEYKCKVSNKALPAPIEKTISKAKGQPREPQVYTLPPSREEMTKNQVSLSCAVKGFYPSDIAVEWESNGQPENNYKTTPPVLDSDGSFFLVSKLTVDKSRWQQGNVFSCSVMHEALHNHYTQKSLSLSPGSGGGGSGGGGSQVQLQESGPGLVKPSQTLSLTCTVSGGSITSDYWNWIRQHPGNKLEYMGYISYTGSTYYNPSLKSRISITRDTSKNQFSLKLSSVTTADTAVYYCARYRDWDVRAMDYWGQGTTVTVSSGGGGSGGGGSGGGGSGGGGSDIVMTQSPDSLAVSLGEKVTMNCKSSQSLLISGNQKNFLTWYQQKPGQPPKLLIYWASTRESGVPDRFSGSGSGTDFTLTISSLQAEDEAVYYCQNDFGFPFTFGQGTKLTAK
light: DVVLTQSPLSLPVTLGQPASISCRSSQSLENSNGNTFLNWFQQRPGQSPRLLIYKVSNRFSGVPDRFSGSGSGTDFTLKISRVEAEDVGVYYCLQVTHVPFTFGQGTKLEIKRTVAAPSVFIFPPSDEQLKSGTASVVCLLNNFYPREAKVQWKVDNALQSGNSQESVTEQDSKDSTYSLSSTLTLSKADYEKHKVYACEVTHQGLSSPVTKSFNRGEC
notes: Asymmetric: anti-CD40 antibody, knob chain without scFv, hole chain with the anti-PD-L1 scFv of 56E5VH5VL4; also called MBS307-6-1 + MBS307-6-2

Kd (human CD40-his protein): 1.43 nM | EC50 (read off the curve); HEK-Blue/CD40 reporter, OD630, plate coated with human PD-L1-his [5]: ~0.1 µg/mL | EC50 (read off the curve) [6]: ~0.06 µg/mL | Kd (human PD-L1-his protein): 11.9 nM
B2: MBS307-7 (bispecific antibody, human IgG1, kappa, L234A L235A)
heavy: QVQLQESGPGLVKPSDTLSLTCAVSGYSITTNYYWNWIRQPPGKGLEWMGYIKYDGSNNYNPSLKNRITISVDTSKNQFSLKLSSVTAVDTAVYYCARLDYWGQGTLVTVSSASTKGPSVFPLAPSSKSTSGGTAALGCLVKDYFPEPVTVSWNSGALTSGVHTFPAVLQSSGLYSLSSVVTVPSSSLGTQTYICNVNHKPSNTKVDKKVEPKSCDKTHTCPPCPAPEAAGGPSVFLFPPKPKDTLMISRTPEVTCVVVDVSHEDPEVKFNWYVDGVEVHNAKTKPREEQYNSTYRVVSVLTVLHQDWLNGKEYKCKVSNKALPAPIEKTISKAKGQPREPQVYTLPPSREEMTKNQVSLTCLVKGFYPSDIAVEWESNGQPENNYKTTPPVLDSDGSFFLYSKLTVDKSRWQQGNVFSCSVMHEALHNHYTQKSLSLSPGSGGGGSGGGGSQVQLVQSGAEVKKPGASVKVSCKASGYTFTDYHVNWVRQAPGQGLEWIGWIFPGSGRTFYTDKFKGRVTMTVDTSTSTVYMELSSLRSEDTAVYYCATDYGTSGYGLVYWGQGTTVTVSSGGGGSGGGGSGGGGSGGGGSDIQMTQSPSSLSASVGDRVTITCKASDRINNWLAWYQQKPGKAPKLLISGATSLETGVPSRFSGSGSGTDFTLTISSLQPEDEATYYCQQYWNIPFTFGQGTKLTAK
light: B1 light
notes: Symmetric: full-length anti-CD40 antibody with the anti-PD-L1 scFv of 3C2VH6VL5 on each heavy chain

Kd (human CD40-his protein): 2.72 nM | EC50 (read off the curve); HEK-Blue/CD40 reporter, OD630, plate coated with human PD-L1-his [5]: ~0.05 µg/mL | EC50 (read off the curve) [6]: ~0.04 µg/mL | EC50 (read off the curve); HEK-Blue/CD40 reporter, OD630, plate coated with human PD-L1-his [3]: ~0.03 µg/mL | Kd (human PD-L1-his protein): 17.7 nM | EC50 (read off the curve) [4]: ~0.07 µg/mL | EC50 (read off the curve) [7]: ~0.02 µg/mL
B3: MBS307-10 (bispecific antibody, human IgG1, kappa, L234A L235A)
heavy 1: B1 heavy 1
heavy 2: QVQLQESGPGLVKPSDTLSLTCAVSGYSITTNYYWNWIRQPPGKGLEWMGYIKYDGSNNYNPSLKNRITISVDTSKNQFSLKLSSVTAVDTAVYYCARLDYWGQGTLVTVSSASTKGPSVFPLAPSSKSTSGGTAALGCLVKDYFPEPVTVSWNSGALTSGVHTFPAVLQSSGLYSLSSVVTVPSSSLGTQTYICNVNHKPSNTKVDKKVEPKSCDKTHTCPPCPAPEAAGGPSVFLFPPKPKDTLMISRTPEVTCVVVDVSHEDPEVKFNWYVDGVEVHNAKTKPREEQYNSTYRVVSVLTVLHQDWLNGKEYKCKVSNKALPAPIEKTISKAKGQPREPQVYTLPPSREEMTKNQVSLSCAVKGFYPSDIAVEWESNGQPENNYKTTPPVLDSDGSFFLVSKLTVDKSRWQQGNVFSCSVMHEALHNHYTQKSLSLSPGGGGGQVQLVQSGAEVKKPGASVKVSCKASGYTFTDYHVNWVRQAPGQGLEWIGWIFPGSGRTFYTDKFKGRVTMTVDTSTSTVYMELSSLRSEDTAVYYCATDYGTSGYGLVYWGQGTTVTVSSGGGGSGGGGSGGGGSGGGGSDIQMTQSPSSLSASVGDRVTITCKASDRINNWLAWYQQKPGKAPKLLISGATSLETGVPSRFSGSGSGTDFTLTISSLQPEDEATYYCQQYWNIPFTFGQGTKLTAK
light: B1 light
notes: Asymmetric: knob chain without scFv, hole chain with the 3C2VH6VL5 scFv; also called MBS307-10-1 + MBS307-10-2

EC50 (read off the curve); HEK-Blue/CD40 reporter, OD630, plate coated with human PD-L1-his [8]: ~0.04 µg/mL | EC50 (read off the curve); HEK-Blue/CD40 reporter, OD630, plate coated with human PD-L1-his [5]: ~0.1 µg/mL | EC50 (read off the curve) [9]: ~0.04 µg/mL | EC50 (read off the curve) [6]: ~0.03 µg/mL | EC50 (read off the curve); HEK-Blue/CD40 reporter, OD630, plate coated with human PD-L1-his [3]: ~0.1 µg/mL | EC50 (read off the curve) [4]: ~0.04 µg/mL | EC50 (read off the curve) [10]: ~0.05 µg/mL
B4: anti-CD40 antibody 7B4VH2VL2 (antibody, V domains shown)
VH: QVQLQESGPGLVKPSDTLSLTCAVSGYSITTNYYWNWIRQPPGKGLEWMGYIKYDGSNNYNPSLKNRITISVDTSKNQFSLKLSSVTAVDTAVYYCARLDYWGQGTLVTVSS
VL: DVVLTQSPLSLPVTLGQPASISCRSSQSLENSNGNTFLNWFQQRPGQSPRLLIYKVSNRFSGVPDRFSGSGSGTDFTLKISRVEAEDVGVYYCLQVTHVPFTFGQGTKLEIK
notes: also called the monospecific anti-CD40 antibody; 714VH2VL2 [sic]
